The source of these data is patent US6093549, “Huntingtin-associated protein-related assays” (The Johns Hopkins University, dated 2000).

For the assay, the target named is GAL-4 binding domain vector alone (pPC97) (yeast, UniProt P04386). The experiment in a line: yeast two-hybrid filter assay.

Description: A cDNA encoding the first 230 amino acids of huntingtin containing 44 glutamine repeats was ligated to the GAL-4 binding domain in plasmid vector pPC97 for yeast two hybrid screening with a rat brain cDNA library.
A cDNA construct containing the first 230 amino acids with 44 or 23 glutamine repeats was in-frame fused with the GAL4 DNA binding domain of plasmid pPC97[27].

B1: rHAP1-BR (rat huntingtin Associated Protein1 Binding Region), GAL-4 activation domain construct (other)
chain: LLEEENDHLREEASHLDNLEDKEQMLILECVEQFSEASQQMAELSEVLVLRLEGYERQQKEITQLQAEITKLQQRCQSYGAQTEKLQQQLASEKGVHPESLRAGSHMQDYGSRPRERQEDGKSHRQRSSMPAGSVTHYGYSVPLDALPSFPETLAEELRTSLRKFITDP
Regarding B1, the binding result is given as “no binding”.
